In patent US20200078439A1:

Biological target: HLA-DR molecules of the vaccinated patients
Test: cell-based or functional assay

B1: BIR-002 (Survivin 97-111: …) (peptide)
peptide: TLGEFLKLDRERAKN
B1 was tested, and the immuno-response in vaccinated patients in vivo (IFN-g ELISPOT, +/- ICS) (out of 19 patients) was 16.
